Laboratory results: patent publication US20050084876A1 (APOXIS SA FORMERLY APOTECH RESEARCH AND DEVELOPMENT LTD A …, published 2005)

B1: Flag-marked E8 protein (viral FLIP, ORF E8 of equine herpes virus 2, EHV-2) (other, equine herpes virus 2 (EHV-2))
chain: DYKDDDDKMSHYSMIDTYFSLDEDETETYLYLCRDLLKNKGEFQCTRDAFKFLSDYACLSAANQMELLFRVGRLDLIRRIFGQTWTPDSCPRYYMPICSPFRCLMALVNDFLSDKEVEEMYFLCAPRLESHLEPGSKKSFLRLASLLEDLELLGGDKLTFLRHLLTTIGRADLVKNLQV
notes: mature; also called Flag-E8; E8 FLIP
B2: adaptor protein FADD (human) (other, UniProt Q13158 1-208, looked up)
chain: MDPFLVLLHSVSSSLSSSELTELKFLCLGRVGKRKLERVQSGLDLFSMLLEQNDLEPGHTELLRELLASLRRHDLLRRVDDFEAGAAAGAAPGEEDLCAAFNVICDNVGKDWRRLARQLKVSDTKIDSIEDRYPRNLTERVRESLRIWKNTEKENATVAHLVGALRSCQMNLVADLVQEVQQARDLQNRSGAMSPMSWNSDASTSEAS
notes: also called CAP1
B3: myc-marked cytoplasmic protein segment of the CD95 (Fas) death receptor (receptor, murine, UniProt P25446 187-327, looked up, not shown: small tags and cut ends)
chain: RKYRKRKCWKRRQDDPESRTSSRETIPMNASNLSLSKYIPRIAEDMTIQEAKKFARENNIKEGKIDEIMHDSIQDTAEQKVQLLLCWYQSHGKSDAYQDLIKGLKKAECRRTLDKFQDMVQKDLGKSTPDTGNENEGQCLE
notes: range 166-306; also called myc-CD95; my-CD95

Key:
[1] = molecular target: B2; assay: anti-Flag immune precipitation, anti-FADD Western blot, 293T cells
[2] = molecular target: T1, CD95 (APO-1/Fas) death receptor of human Raji B cells, stimulated with agonistic anti-APO-1 antibody (human, UniProt P25445 26-335); assay: anti-CD95 (APO-1) immune precipitation from Raji clones, gels
T1 construct: whole, on cells; also called CD95 death receptor; CD95 receptor complex
T1 sequence: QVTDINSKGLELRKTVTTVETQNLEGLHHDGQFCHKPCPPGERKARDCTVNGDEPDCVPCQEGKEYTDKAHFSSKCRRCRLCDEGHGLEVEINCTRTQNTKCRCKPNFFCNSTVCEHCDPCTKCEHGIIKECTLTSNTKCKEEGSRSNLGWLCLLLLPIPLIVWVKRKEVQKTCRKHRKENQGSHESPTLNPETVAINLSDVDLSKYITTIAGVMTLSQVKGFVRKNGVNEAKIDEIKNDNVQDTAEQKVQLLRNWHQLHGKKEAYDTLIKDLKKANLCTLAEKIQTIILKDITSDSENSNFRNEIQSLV

[3] = molecular target: T2, Flag-marked 159L protein (viral FLIP, ORF 159L of molluscum contagiosum virus, MCV) (molluscum contagiosum virus (MCV), UniProt Q98325 1-241); assay: co-transfection in 293T cells, anti-Flag immune precipitation, anti-FADD Western blot
T2 construct: also called Flag-159L; 159L-FLIP (MCV)
T2 sequence: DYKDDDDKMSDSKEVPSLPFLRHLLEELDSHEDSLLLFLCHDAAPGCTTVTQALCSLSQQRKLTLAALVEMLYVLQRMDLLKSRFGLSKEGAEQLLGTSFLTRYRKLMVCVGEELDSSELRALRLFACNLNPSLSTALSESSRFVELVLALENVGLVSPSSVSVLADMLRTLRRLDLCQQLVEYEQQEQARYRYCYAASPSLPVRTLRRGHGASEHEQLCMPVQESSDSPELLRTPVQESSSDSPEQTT

[4] = molecular target: T3, Flag-marked FLIPP (caspase-homologous C-terminal protein segment of human FLIPL) (human, UniProt O15519 233-480); assay: anti-Flag immune precipitation, anti-FADD Western blot, co-transfected 293T cells
T3 construct: also called caspase-homologous protein segment of FLIPL

[5] = molecular target: T3, Flag-marked FLIPP (caspase-homologous …); assay: anti-Flag immune precipitation, anti-myc Western blot, co-transfected 293T cells (with FADD)

T3 sequence (O15519 other isoform, or with tags, fused parts or gaps limits assumed): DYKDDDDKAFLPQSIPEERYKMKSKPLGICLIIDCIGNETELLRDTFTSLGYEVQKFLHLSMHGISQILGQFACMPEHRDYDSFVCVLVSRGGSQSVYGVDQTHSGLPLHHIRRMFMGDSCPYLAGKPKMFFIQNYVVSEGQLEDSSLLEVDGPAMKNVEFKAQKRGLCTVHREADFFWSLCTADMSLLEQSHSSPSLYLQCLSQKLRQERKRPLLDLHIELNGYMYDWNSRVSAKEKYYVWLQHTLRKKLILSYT

Binder: B1
- binding result [1]: binds
- binding result [2]: binds

Binder: B2
- binding result [3]: binds
- binding result [4]: no binding

Binder: B3
- binding result [5]: no binding
